Literature values, collected in publication PMC5877629.

Target: infliximab
Test: sedimentation equilibrium analytical ultracentrifugation

- Kd: 21 µM
Substance: infliximab
